Here are results for 1 substance from article PMC10833071.

In the experiment the target is TdsR receptor of E. coli (on cells) (E. coli (endogenous in E. coli cells)). The experiment is described as follows: flow cytometry on cells.

With TepC-GFP (natural protein), the GFP-labeled cells is 33.1%.
